The results in this text go back to the DeepSol protein solubility set.

A short description of this series: soluble on expression in E. coli; label from the status in PepcDB or PDB records.
In the case of “MMNQDIEKVLISEEQIQEKVLELGAIIAEDYKNTVPLAIGVLKGAMPFMADLLKRTDTYLEMDFMAVSSYGHSTVSTGEVKILKDLDTSVEGRDILIVEDIIDSGLTLSYLVDLFKYRKAKSVKIVTLLDKPTGRKVDLKADYVGFTVPHEFVVGYGLDYKEQYRNLPYVGVLKPSVYSN”, the “soluble on expression in E. coli” value is reported as “not soluble”. Consider “MGHHHHHHSHMANSMANSLSSTQTDYRLSDDLLGPVLAILDAYIDPYLAKGLVSAGCVNKLAIEGKRLQLGLVYPYPCMTQYRDTVMALTNKLAVLDAIDEVECEIDFQPKVYSAIASIAPIANVKQVIAVASGKGGVGKSTTAVNLALALAAEGAQVGILDADIYGPSVPLMLGIPNFRPVSPDGKHMTAASAYGIAAQSIGFMLSGDEAAVWRGPMAAGALAQLLNETQWPELDYLVVDMPPGTGDIQLTLSQKVPVSGAVIVTTPQDIALADAKKGITMFQKVNIPVLGIVENMSFHLCPECGHKEHPFGTHGGSKMAERYQVPLLGALPLHINIREAMDVGAPTVVAEPDSEVAALYREIARKVGAELALKQSQKTVSISVSDDE”, for which the “soluble on expression in E. coli” value was “not soluble”. The entry for “VDYTLRRRSLLAEVYSGRTGVSEVCDANPYLLRAAKFHGKPSRVICPICRKEQLTLVSWVFGEHLGAVSGSARTAEELILLATRFSEFAVHVVEVCRTCSWNHLVKSYVLGAARPARPPRGSGGTRTARNGARTASE” is “not soluble”; for “MLRRSSRHADQRKNGAQLRAEEEANKVKLRLTAENEKLKSEVEKLKKDHEELSRVTLKVNTEFTIQESHMARLLRENMSLKEQLNDFSFKLRFRDDMSRVEEQVKKEQGVTDGYRRRVNQLTEFHVKSQEEQRGEPFPWRTCEICACKFEGETMDQTPRVLGCGHTMCMGCVQKIVGQGYIKCPFCRIVTKIGTTPLNNLPKNYIVLNM” it is “not soluble”. “ILLPSKPRFIFQDVTVFNFNVSGNPSDLNTPVVQFNLSFRNPNANIRIYYDTLDVYAFYGNGSQQIIIPTPMPSTYQGHKEDSVWSPYIPVVPYNALYLDDQHHSRDGNMLMLHLDGRISWLLLGN”: the “soluble on expression in E. coli” value is on record as “not soluble”.

Consider “QVQLVQSGAEVKKPGSSVKVSCKASGYTFSSNVISWVRQAPGQGLEWMGGVIPIVDIANYAQRFKGRVTITADESTSTTYMELSSLRSEDTAVYYCASTLGLVLDAMDYWGQGTLVTVSSASTKGPSVFPLAPCSRSTSESTAALGCLVKDYFPEPVTVSWNSGALTSGVHTFPAVLQSSGLYSLSSVVTVPSSSLGTKTYTCNVDHKPSNTKVDKRVESKYGPP”, for which the “soluble on expression in E. coli” value is “soluble”.

Regarding “MNMQKLRIELGEETNDELYDLLLLADPSKDIVDEYLERGECYTAWAGDELAGVYVLLKTRPQTVEIVNIAVKESLQKKGFGKQLVLDAIEKAKKLGADTIEIGTGNSSIHQLSLYQKCGFRIQAIDHDFFLRHYDEDIFENGIQCRDMVRLYLDLLEHHHHHH”, the “soluble on expression in E. coli” value is given as “soluble”. As for “MGSDKIHHHHHHMRTRDMLPILETLDESGIYSLEVWGGATFDACHRFLNENPWERLREIRKRVKNAKLQMLLRGQNLVGYRHYPDDIVEKFVQKTIENGLDVFRIFDALNDVRNLISSIKAAKKYNADHIQGTICYTISPVHTVEKYVEIANELAALEVDSICLKDMAGMLSPKMAYELVKALKKEVGLPINVHSHYTSGMASMALLKGVEAGAEMIDTCMSPLSSGTSHPPTESMVYALNELGYDTGVKLDILLEAREYFMKIREKYSGYLNPLSTIPDTRVLVYQIPGGMFSNLIAQLQEQNALDRLQEVLEEVPRVREDLGYPPLVTPTSQIVGVQAVINVLVGERYKVVTRETKDLVKGMYGRTPAPIKPEIVKKILGDEKPIDCRPADLLEPEFEKRKQELIEAGIENPSDEDVLLYALFPQTGLKFLKGEMVEEPFPVAGGKIEGSFEVEIDGQKYVVKVAPEK”, the “soluble on expression in E. coli” value is listed as “not soluble”. Regarding “MGSDKIHHHHHHMVDCDRIDRLIAAVPPALALRAGLDLGIFTRLGGDAATADSLGAALKVEPDRLSRLLYALASIDLLEVKDGQFRNGAEASAFLDASKPTYRGGDHALLRELWGADLLTAESLRQNRPAALHDFSEAGPEAAAAFSRMLAPGGVIFGRHLAREIDLSAIGSVIDIGGGAGTILVGLRERRRQIAATLMELPTVAAVAPAILSEYGADDVIVEEGDITVAPSIGRHDLAILKAVVQVLPPDQARNAILNAARCLTPGGEIAIAGWGVVDDDRLGPSEGVFLNLTFLNLYRHGESYTEGQYRAWMTEAGFRNISRSRLTDGTALFRGRLTD”, the “soluble on expression in E. coli” value was “not soluble”. “DIGVWEYFPATDSLDWSDGVRRIHGVADEYEPSLDDALGFYHPDDRDKISKAVEQTIADREPYDIDLRIVRTDGDVRDVRAWGERVDDPQ”: the “soluble on expression in E. coli” value is “not soluble”. For “MSDNLPWKTWTPDDLAPPPAEFVPMVESEETIIEEAEPSLEQQLAQLQMQAHEQGYQAGIAEGRQQGHEQGYQEGLAQGLEQGLAEAKAQQAPIHARMQQLVSEFQTTLDALDSVIASRLMQMALEAARQVIGQTPTVDNSALIKQIQQLLQQEPLFSGKPQLRVHPDDLQRVDDMLGATLSLHGWRLRGDPTLHPGGCKVSADEGDLDASVATRWQELCRLAAPGVV”, the “soluble on expression in E. coli” value is on record as “not soluble”. For “MAPPKRRSTRPTTPAAPTDPPIEEKKPDLLIAYDSDEKFVFSFSEEGLTAKECAEKMNGFSTKEQFLTEVHVDEMLRFLTKVIIGRKGEPLKCLCCDRLYVSSSGFLIHIKKCSTKNEQDRLTDAQNKYRNEPSKWLNVRKKDQIATLKTIVGTNYTCFMIGCSLNFGSLKDLIEHLATCIGADYYSYKNRPDDFRKLSKKAKQAYTLDAVTKNKGIVKCLVCDKEYTNHMSIIYHIDRCQVDKSLQPWKCWRCGFDATAADAQEHLIDCGRTAEMKMFDRLPESSSFGFPIPGSSVPSTSEPTTSAAAAPTKRKRVTGGAPRATPRKDGTTLYRFRKSTISRSSNGIVTKKDKKLYEDQCSKIFENWKQKSAEIAFCDTLSNIANSKWKLSILDSNDQFYRIFTRQSVTLVSGKTLGLQQTVPPGIRLDALKSREMLDEDDAPKATVGYCGAPINSINVAPGKTRDGSDVICVTTFANDTDLESDSSCVQFWKHKLGKKKKSHLELWFLIHLPLRGTILHATWLQKQHNDEMMTSLIGYVAFSTTIGQILIYKIDESRVPEAPDRGDNVHVIVADPDLTLRLPKSTDTPDDTFLNADVKMEGDDIVVLPTRIDESTVPLLKIAWSYHNGGATLAALTALGAIAIWNLDGGDLDMPRVNIEESWQSPPSDIAFWNIDHLVVGFREKIVKVISIETWDVMLEDNTAKNAGSRVHTDNRIVRSFFMFQSDHTAFPYPNATNLTYVHCDIDTMTMILVPTGNTHQLLTWDVAMCPAVGTLLSSGIDGRLVASATGRFLGNMRHSYFANRNVMALKRRRILKESQTMEEYLKEVKMEGSAEGSTSTSTTKISDDKINEPLEESITEHTEVCQKMWLDVQFDEIFEPTRPEFSCRDQRIESLNCVDGTTSRDWPVSFTGGEAGLLFAVSVKLHIEEMDL”, the “soluble on expression in E. coli” value is listed as “not soluble”. With “MGSDKIHHHHHHMSTSSGERVTVGTATASPGEAVRGAIPAGDLAGGVKVEIPVVVINGGGAGPTFWVNAAIHGDEPEGPLACALAVKQIDPAKLRGTVVMVPCVNPLAFSAAERGNPLDTFTYDMNRIYPGKPDGYFSDRVADAHWQAMKDVADLEISIHSGGAHSFLDKAIFVDERPESVELAKAMGEGWGCIMSNFTKAGSPMAAMNNAGKVDITVELGGRSYTSPDRFRYVGEELAKSILNICYHYDMLDGQATYPTDATIGQQEALLAPASGIFLPEPGVDFLTMMDNGTKIARIINIFGDEVGALHAPARGMFFGLRALPNVNQGDWCCFFNKVEGPRD”, the “soluble on expression in E. coli” value is reported as “not soluble”. The entry for “MAHHHHHHMVQEWWVSAAQEAVISRKATSRAERIVTEADDPRSGTSHFYDSDARLCLVCNARLEGSYSAHSHSVDHKPRVALLKRTIGMILTFLEQAGSSPSLPPPPESDSPYSLPGSKRFLVSVSTHTGTPAAPAPSCFHALYAESPLFAEDGVPSRALLYHRPCTLREFDLVDVIMRRWWNTLHNPPPRRGSISFDRLLSLSSAELQMRRWRVRYLLHFLKSRGVLRSCLTLRSDQVNAAPSPNERIHRGEAFERLEMVGDFFFKSLTPDRMHTVFPADEGGLTAELQCFERALDSNHGLLAIYDYLGLDDIVGCFLANNKAKADVVEAVIGELKVLLWSTEVVWGMEYYAVPGERATHVYLRALVAHTIAELGHTVLMWQLESTLRNCRDFLLKHTVEEYLGAEKGNERRASRGGDGCDVPADLPKYSPLPPLLAWNRRRLGVSMRRGEVPLASKQSRSSIPPSPQDPLRRLAPTASCIPEAIRDHYAVGRKKWSSYACKTAIQALCASLTQTALQHDSGHTADALSLNSSSASLPLSPEPQPSPTTPAYACVPRSVLRALVTANCVVIRNSAPPLARSTSTRRVAG” is “not soluble”; for “ACDYTCGSACYSSSDVSTAQAAGYKLHEDGETVGSNSYPHKYNNYEGFDFSVSSPYYEWPILSSGDVYSGGSPGADRVVFNENNQLAGVITHTGASGNNFVECT” it is “soluble”; for “MRMGRYFGTSGIREVVNEKLTPELALKVGLALGTYLQEGKVVIGCDTRTSSVMLKNAVISGLLATGIDVIDIGLAPTPLTGFAIRLYNAEAGVTITASHNPPQYNGIKVWDRDGMAYTPDKEHELEKIIESGNFRRVPWNEVGTLKTANPRKEYIEAILREINLKGSYTVVIDAGNGAGSIVSPYLHRELGNRVITLNSDPSGFFVRELEPNKESLSMLEKTVKVLNADIGIAHDGDADRVGVVDENGEFVEYEVMLSLIAGYMLKKYGKGKIVTTVDAGFALDDYIRELGGEVVRTRVGDVAVAEELVKHGGVFGGEPSGTWIMPQWNLTPDGIFASALVLEMIDRLGPIGELAKDVPKYVTLRKKIPCSNELKNKVMNKIADLIPREFSYERIITIDGIRIENDDWWILFRPSGTEPIMRITLEAHTEEMAERLMKKAENLVKSVIKDLSS” it is “soluble”. For “SLVIIYDGDSYGISKRIDYMLNSTTSSGKRTGILAIGAHPDDIELGCGASLSYYSNEKVYIISVVMTPGCCGAEYIDRHKESQEALNMLGCNKLIPLNFEDTRLYLQIKEMISSLEYIIENETPQDVEITRVYTMNNTDRHQDHIAVYQASMVACRYIPQILGYETPSTCLSFLPQVFESVDEVHFNKKILALQKHKSQIHRRYIQPEYIIAQAKFRGQQVSHSMCEGFVVHKMVL”, the “soluble on expression in E. coli” value was “soluble”. Take “LSKDILQLVGGEENVQRVIHCMTRLRFNLHDNAKADRSQLEQLPGVMGTNISGEQFQIIIGNDVPKVYQAIVRHSNLSDEKSAGSSSQKKNVLSAVFDVISG”: the “soluble on expression in E. coli” value is on record as “not soluble”. Turning to “MREPGFWHRPPSLVSRLLLPIAAIYGNIAAARMQKAGTTVGVPVLCVGNYHMGGAGKTPTTLALVALLREFGETPVVLSRGYGGRLQGPVQVDPSRHSAADIGDEPLMMARRVPVVVARDRTDGAALACALGATVILMDDGFQNPALTKDASLIVVDSHRSIGNGSVFPAGPLRAPLPLQVARTDALVVVGDGTAADGLAQQITTKGGVVLRARLVPEPASVEALRGRRVLAFAGIGDPARFVATLRDSGVEVVEQRAFADHHPFTAEELAELAAAAKRDGLTLVTTEKDLARIGGAQQALGVEIVPFAVTLAFGDEAKLRLFLLDRLNGARAAKLAGRRMAGDPLEHHHHHH”, the “soluble on expression in E. coli” value is reported as “not soluble”. The entry for “PGGPEEQWQRAIHERGEAVCPTCNVVTRKTLVGLKKHMEVCQKLQDALKCQHCRKQFKSKAGLNYHTMAEHSAKPSDAEASEGGE” is “soluble”; for “MGSGRTWRELKEVFPKLARAKYYTRARYGYCRGYEAVDFVESVRWYYYVLSGLVVLDRPEAKHLEHHHHHH” it is “not soluble”.
